# Test results: PMC8111768
# Tests used:
# [1] = molecular target: VIC16 REFORMab SDIEALGA (G236A/S239D/A330L/I332E) (mouse | human); experiment: SPR
# [2] = molecular target: VIC16 REFORMab EFTEA (G236A/S267E/H268F/S324T/I332E) (mouse | human); experiment: SPR
# Chain of recombinant human FcγR3B (O75015 17-200): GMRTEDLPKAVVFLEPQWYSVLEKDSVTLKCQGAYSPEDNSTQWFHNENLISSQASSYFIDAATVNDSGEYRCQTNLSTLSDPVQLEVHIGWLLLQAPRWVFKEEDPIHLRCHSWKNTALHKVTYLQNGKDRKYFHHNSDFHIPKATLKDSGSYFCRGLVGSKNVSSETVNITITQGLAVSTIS
substance,measurement,setting,value
recombinant human FcγR3B (from UniProt O75015 17-200) (receptor),Kd,[1],3.2 µM
same,Kd,[2],475 µM
